Reference: PMC11333492 (Nature Communications, 2024)

Biological target: T1, FluPolB (influenza B/Memphis/13/2003 polymerase heterotrimer) (influenza B/Memphis/13/2003, UniProt Q5V8Z9;Q5V8Y6;Q5V8X3)
T1 construct: copies: + +
Assay: SEC
Conditions: both partners purified

B1: hANP32A LCAR alone (144-249) (domain or fragment)
chain: YLDGYDRDDKEAPDSDAEGYVEGLDDEEEDEDEEEYDEDAQVVEDEEDEDEEEEGEEEDVSGEEEEDEEGYNDGEVDDEEDEEELGEEERGQKRKREPEDEGEDDD
**Q.** Does B1 bind?
**A.** binds
